Source: the supplement of paper PMC12764529
± gives the half width of the 95% confidence interval.

Experiment: folding stability dG unfold from chymotrypsin proteolysis; higher = more stable
Procedure: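 Folding stability of de novo designed mini-proteins (<80 aa, no Cys; designed by TrROS, TrMRF, ProteinMPNN and the joint model) was measured by cDNA display proteolysis with trypsin and chymotrypsin. Each protease was used at 11 concentrations in a threefold dilution series plus a no-protease condition. K50 was inferred by Bayesian fitting of sequencing counts, and dG unfold was derived against a sequence-predicted unfolded-state K50 (Tsuboyama et al. method). Sequences shown include variable-length N-terminal GS-type padding (SAGGSAGG...) inside a display construct carrying a PA tag. Rows were kept only if the AF2 dimer inter-PAE was >15, to exclude likely homo-oligomers.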

“SAGGSSLPPDVTLVEEEKVVETPDGTTIKVKTTTAVSAEGTVRRPVTETITYPEKPETIEKETEIDASAGGS [r16_563_JUSTAS]” and “SAMELVLEESTELAEDPTNPGVLVPRTTTRELPVEPPPVVVIGSEENAKKLKKKGEVEVPPSGIILIPLSAG [r14_582_JUSTAS]” are within error of each other in “folding stability dG unfold” value: 0.405 ± 0.15 kcal/mol for the first, 0.517 ± 0.21 kcal/mol for the second.

“SKKRILIVTDEKDLSPEEAAKLLEELGIEEVKVVKSAEELKNLPPEVDEVIVVTPPPPVKVEFSPEELEKSA [r9_750_TrROS_Hall]” and “SAGGSAGGSAGGSHIQFDPEGRWKIRNRDNNNTREFPADDLPKLPPDFDIPKGARIEPYSAGGSAGGSAGGS [r4_91_TrROS]” are within error of each other in “folding stability dG unfold” value: -0.309 ± 0.069 kcal/mol for the first, -0.134 ± 0.25 kcal/mol for the second.

“SAGGSAGGSAGGPVVTETPTTSVVYDPAKGTVTYVTPTVVTFPDGTTTTTVASTTVPLPASAGGSAGGSAGG [r11_308_JUSTAS]” and “SAGGSAGGSAGGMIWIPESELSKLPESFKNFKILKKTPLTLPHPSKKNKPVVLVEIEKKESAGGSAGGSAGG [r7_237_JUSTAS]” are within error of each other in “folding stability dG unfold” value: 0.531 ± 0.15 kcal/mol for the first, 0.696 ± 0.23 kcal/mol for the second.

Compared with “SAGGSAGGSSSRFEAIKKKILDAFPEDVIKEVKKGPGKIYVVGKPEYIKEIKKLTGSKDIIINSAGGSAGGS [r12_748_JUSTAS]”, “SAGGSAGGDHVQIEFPIWRMKEVERNPDNGEPRMDMEPIEITIWYPPDDPEKAKKIADEILDFISAGGSAGG [r6_280_TrROS]” is higher in “folding stability dG unfold” value: -0.559 ± 0.36 kcal/mol for the first, 0.891 ± 0.14 kcal/mol for the second.

First: SAGGSAGGSAGSMVTPVTLERYVYIEPTPDGVERKRVVPVKVKETVTVDAAGNVTTTTEVLLSAGGSAGGSA [r18_284_JUSTAS]
Second: SAGGSRMRILNIDPESNRIRVRHPGKPFTFPVDNIEEVTIDPNDGYLTIKMKGETQTIPLDDPDAFSAGGSA [r2_48_TrROS]
The “folding stability dG unfold” value of the first is lower: -0.871 ± 0.31 kcal/mol for the first, 0.575 ± 0.16 kcal/mol for the second.

First: SAGGSAGGSAGKKKITIDYEEIREKFGLPPDDIDNMSMSRVMNYAKPLAKEGKIDEIEISSAGGSAGGSAGG [r11_80_TrROS]
Second: SAKKVKIKVVEIEKKEDYVLIKIKLEKNVKKGEKVKIIIKNKNGEKKEITIKNGYIYIKMKKKDIEIKISAG [r14_350_TrROS_Hall]
The “folding stability dG unfold” value of the first is lower: -0.291 ± 0.53 kcal/mol for the first, 4.1 ± 0.29 kcal/mol for the second.

Going from “SAGGSASPVLVELPEGVRVELPPDTMTVTIRLPNGTEVVVPLENPEPPDPAAALARARAVVAALPESAGGSA [r15_748_JUSTAS]” to “SAGGSAGGMTVTVEIPLPPDVPIEEVKEKVKESGYPPTKIEYDPATGKATITLSPEAKEFLEKKSAGGSAGG [r6_307_JUSTAS]”, the “folding stability dG unfold” value falls from 0.774 ± 0.1 kcal/mol to -0.425 ± 0.11 kcal/mol.

“SAGSVTPLPNGEVVTLTTEKIGNEVYLVTKTTLPDGSVETETTPLKPTPPPPAVPVDVSNPYRAKLALASAG [r5_715_JUSTAS]” and “SAGGSASSGSMPLTKETDPLDGAGEVERVLYEDGTVVEIVTGADGKPTLRTRKVEIEPPEPLLLLRSAGGSA [r15_478_JUSTAS]” are within error of each other in “folding stability dG unfold” value: -0.472 ± 0.35 kcal/mol for the first, -0.501 ± 0.63 kcal/mol for the second.

Compared with “SAGGSAGGSAWYIRIKSPELRKKLKNAGGIKPTEREPNWVTFKFPGMPPKKRDKIRELIKDSAGGSAGGSAG [r3_398_TrROS]”, “SAGMKIKVPFKAEVAPGAKPVKVEVWLGDGPPVATARLYYKVPGEEKTEVALIPIDPSTGKVTVFVKPGSAG [r5_136_TrMRF]” is higher in “folding stability dG unfold” value: -0.644 ± 0.49 kcal/mol for the first, 0.592 ± 0.26 kcal/mol for the second.

“SAGGSAGGSAGGSAAEFVAAHPDVEARPVEEGPGSVLVALRPPGGPELLVRVEGAAVTLESAGGSAGGSAGG [r7_26_JUSTAS]” and “SAGGSAEKKINSPEEIKRFAKELEKKGIKILSIDAVKFPSGPVVEYKMPVLHPENGKLSTLYIKSGSAGGSA [r15_123_TrMRF]” are within error of each other in “folding stability dG unfold” value: -0.459 ± 0.34 kcal/mol for the first, -0.352 ± 0.51 kcal/mol for the second.

Compared with “SAGGSAGGSAGVVYPLAGRPVRIDTSATDSLVVTTEPPDGTRTTRTYPDMDLDEVLAALASAGGSAGGSAGG [r11_934_JUSTAS]”, “SAGGSAGGSAGMNIVVSSEEEAEKAIKELAKKLGKPNNLKNPKVTVIPLEPTPTGGLKKKSAGGSAGGSAGG [r17_237_JUSTAS]” is lower in “folding stability dG unfold” value: 0.639 ± 0.072 kcal/mol for the first, 0.226 ± 0.077 kcal/mol for the second.

Going from “SADPADVDVPLPVVGTAPALTSAPPGARLELVRLPDLGALARVDDGSVVALTVVVNDDGEVLAVAVEPAPSA [r9_1195_TrMRF]” to “SAGGSAGGSAGGHPVLLTVPRRYTYLLPGTAPRTVTVPVPVVVEVDDPEVALRLARELEGSAGGSAGGSAGG [r7_21_TrMRF]”, the “folding stability dG unfold” value falls from 0.894 ± 0.028 kcal/mol to -0.35 ± 0.73 kcal/mol.

Going from “SAGGSAGGSAGGGMITFSSESVEEFGSVTPVNVVRRVTRYTTKVGDTIIETTEEEVVPLESAGGSAGGSAGG [r7_248_JUSTAS]” to “SAGGPIVTSEVVETRPLPDGSTLVTVKTTKLLPLPVETTAPDGTVSPVPPGTPPVTVTETHLVVLEPSAGGS [r16_693_JUSTAS]”, the “folding stability dG unfold” value rises from -0.049 ± 0.4 kcal/mol to 0.684 ± 0.055 kcal/mol.

“SAGGSAGGSAGGSLEEKAEAAYKKNPTTVPVELPLPGGVPATLTVTRTSPDSLDITRTLSAGGSAGGSAGGS [r10_395_JUSTAS]” and “SAGSLPPDVTVPIPRRVRLSESDPALLEAARNGEPVYEELPGDVRVTVELRPLPPDELEVTERVYFPAGSAG [r5_223_JUSTAS]” are within error of each other in “folding stability dG unfold” value: 0.232 ± 0.2 kcal/mol for the first, 0.444 ± 0.12 kcal/mol for the second.

Going from “SAGGSAGGSAGKLRFRRVGLVLELNEDGSLSLSPIEEEVEVEVPEPLPVGLGLGGKPYLLSAGGSAGGSAGG [r17_418_TrMRF]” to “SAGGSAGGSAGGTIQWDPANGRIKITNPNGKKKTIPIPPDDPEEFLKELKDNGIDRIEPVSAGGSAGGSAGG [r7_139_TrROS]”, the “folding stability dG unfold” value rises from 0.325 ± 0.27 kcal/mol to 0.964 ± 0.075 kcal/mol.

Compared with “SAGGSAGGSAGNPKYVMVPLKFPDGNPVNIMVSDDEIHIYDMGPNKWRWIPADDLPPEAFSAGGSAGGSAGG [r11_155_TrROS]”, “SAGGSMKIVKKSEDPSPPVETIEVDPNLDIEKIINELKNQPNVKVDKSTDPNSSKKTITITRPVDGSAGGSA [r2_44_JUSTAS]” is lower in “folding stability dG unfold” value: 0.666 ± 0.15 kcal/mol for the first, 0.0999 ± 0.058 kcal/mol for the second.

First: SAGGSAGGSAGGSLAPALAAAIAPLLPKDGTFVFVAEPVGDRLVIVTETRPLREDEERGSAGGSAGGSAGGS [r4_350_TrMRF]
Second: SAGGGRMIKLTFKSGETKTIPLSSDYPDAKVEVSEKDDKLYITVTYPNGEKITYEFPLSEVESIEILSAGGS [r16_658_JUSTAS]
The “folding stability dG unfold” value of the first is lower: 0.496 ± 0.047 kcal/mol for the first, 4.526 ± 0.042 kcal/mol for the second.

Going from “SAGGSASSEFNTDKKPPPLPKKSKVINLNIPTPPDETEEEAKKKAEEIANKLKEEGKYGEVTVKIESAGGSA [r15_450_JUSTAS]” to “SAGGSAGGSAVVYDENTAIVKTPNKDYLLKVKVGDTVDIPDSAGIPVPVKVEKDFPIPPSELSAGGSAGGSA [r18_244_JUSTAS]”, the “folding stability dG unfold” value falls from 0.756 ± 0.17 kcal/mol to -0.38 ± 0.12 kcal/mol.

“SAGGSAGGSAGMEPLKEIEVPFPGGWSIEIEVYPNGIKIEPNPNFDNPQMKKRILDALNPSAGGSAGGSAGG [r11_372_TrROS]” and “SAGGSAGGSTTMTLTITEYTNDPEGGVKKKKSTTESTVSPEEVEKVAEEVKKKSKNVKVTVNSSAGGSAGGS [r12_342_JUSTAS]” are within error of each other in “folding stability dG unfold” value: -0.0677 ± 0.26 kcal/mol for the first, -0.315 ± 0.29 kcal/mol for the second.

“SAGGSAGGSAGGPKVTVFDDHPKKVVLVEFPDKPILAVYDPVTKEVVLLNPDTDELLPLSAGGSAGGSAGGS [r10_434_TrMRF]” and “SAGGSAGGSAGMVIELPVPGTMSPEEARARAEEVAEELARRTGRPVEVREVRLVTPEELASAGGSAGGSAGG [r17_68_JUSTAS]” are within error of each other in “folding stability dG unfold” value: -0.551 ± 0.22 kcal/mol for the first, -0.364 ± 0.086 kcal/mol for the second.

First: SAGGGPGSVSPQPFEEDYTLPDPGEKIRVKVTAYTLPDGSVVERAVSPEPEREFVFTRDGETVTVTPESAGG [r13_117_JUSTAS]
Second: SAGGSAGGSAGGMSSTVTVTTTPVDPNVGLYRVTTTTYYVDPDGPAHPGTSVSLVNRALSSAGGSAGGSAGG [r11_51_JUSTAS]
The “folding stability dG unfold” value of the first is higher: 0.612 ± 0.088 kcal/mol for the first, -1.34 ± 0.83 kcal/mol for the second.

“SAGGSAGGSAGGNKKKIELHFFFDPGQPAEEAKDFIRGAALENGDTITDVDIHWVPPEDFSAGGSAGGSAGG [r7_703_TrROS]” and “SAGGSAGGSAGPPPMEPIFTFTNPKEPVTIYRSKDPGNYHIYDPPNGKERTIPPNDPNFFSAGGSAGGSAGG [r11_1007_TrROS]” are within error of each other in “folding stability dG unfold” value: 0.201 ± 0.11 kcal/mol for the first, -0.0661 ± 0.55 kcal/mol for the second.

“SAGGMLKVEVIEVPPDEVGPEKLRAEIKAKYPDVEVRFETLPDGTLRVTVEIPVPEEPSKPLPLEKKSAGGS [r16_535_JUSTAS]” and “SAGGGLARELFEAENLPVVVEEEERDGKPVLRLVVDAGDKPLVFESDGEDVERAVREAARELGLPGLSAGGS [r8_226_TrMRF]” are within error of each other in “folding stability dG unfold” value: 0.743 ± 0.077 kcal/mol for the first, 0.674 ± 0.085 kcal/mol for the second.

With “SAGGMRLEHLRNMIKNMPPGMKDVNINQHPGHGNYTFSVENPNKPVSIPFDSPEDQQEIQELAREYVKSAGG [r13_287_TrROS]” the “folding stability dG unfold” value was 0.19 ± 0.19 kcal/mol.
